In PMC6751238, “The first fungal laccase with an alkaline pH optimum obtained by directed evolution and its application in indigo dye decolorization” (AMB Express, 2019):

What was measured:
[1] = substrate: COc1ccccc1O; assay: purified protein
[2] = substrate: COc1cccc(OC)c1O; assay: purified protein; assay type: biochemical, Coprinopsis cinerea
[3] = pH 6.5, 70 °C as printed in table (text says 60 °C), pH 6.5
[4] = PIE5, pH 8.5, 60 °C, pH 8.5, 60.0 °C

B1: rLcc9 (Coprinopsis cinerea okayama7#130; E116K/I393T) (protein)
chain: QILGPTSTMTVSNIDASPDGFNRPVVAVNGQHPGPLVRANKGDNFRINVVNDLNDPTMLRQTSVHWHGVFQHGTAWADGPDGVTQCPIAQNGESFKYRFNAGNEAGTFWYHSHFGTQYCDGLRGPLVIYDPNDPHRNLYDVDNADTVITLVDWYHLQAPSIEGPALSDATLINGKGRRPGGPETDIAIVNVQRNRRYRFRLVSMSCDPNYKFSIDGHKLTVIEADGQLTEPLMVDEIQIFAGQRYSFVLSANRPVGNYWIRAIPNVGSNNLPNFSSGGINSAILRYAGAPNANPTSTPVTNPVALHESNLHALLNPGAPGGSGPADENIVLQMGLGPAGFEINGVTWANPDSPVMVQIMNGVPPADIVPSGATHTLPRNRVVEVSIPGFELAGPHPFHLHGHAFSVVRSAGSSTYNYENPVRRDVVDVGGASDNVTIRFTTDNPGPWFFHCHIEFHLVLGLAMVFMEAPSDIPSTSPPPPSWSELCPKFESLPASATSIQIVPTP
Km ([1]; pH 6.5, 60 °C, pH 6.5, 60.0 °C): 110 µM | kcat ([1]; pH 6.5, 60 °C, pH 6.5, 60.0 °C): 46 s⁻¹ | kcat/Km ([1]; pH 6.5, 60 °C, pH 6.5, 60.0 °C): 390000 M⁻¹ s⁻¹

B2: rLcc9 (Coprinopsis cinerea okayama7#130) (protein)
chain: QILGPTSTMTVSNIDASPDGFNRPVVAVNGQHPGPLVRANKGDNFRINVVNDLNDPTMLRQTSVHWHGVFQHGTAWADGPDGVTQCPIAQNGESFEYRFNAGNEAGTFWYHSHFGTQYCDGLRGPLVIYDPNDPHRNLYDVDNADTVITLVDWYHLQAPSIEGPALSDATLINGKGRRPGGPETDIAIVNVQRNRRYRFRLVSMSCDPNYKFSIDGHKLTVIEADGQLTEPLMVDEIQIFAGQRYSFVLSANRPVGNYWIRAIPNVGSNNLPNFSSGGINSAILRYAGAPNANPTSTPVTNPVALHESNLHALLNPGAPGGSGPADENIVLQMGLGPAGFEINGVTWANPDSPVMVQIMNGVPPADIVPSGAIHTLPRNRVVEVSIPGFELAGPHPFHLHGHAFSVVRSAGSSTYNYENPVRRDVVDVGGASDNVTIRFTTDNPGPWFFHCHIEFHLVLGLAMVFMEAPSDIPSTSPPPPSWSELCPKFESLPASATSIQIVPTP
notes: lcc9 cDNA in pPIC9K (EcoRI/NotI), secreted from Pichia pastoris GS115, purified (DEAE-Sepharose); PIE5 = E116K/N229D/I393T
Km ([2]; pH 6.5, 60 °C): 2300 µM | kcat ([2]; pH 6.5, 60 °C): 69.4 s⁻¹ | kcat/Km ([2]; pH 6.5, 60 °C): 30000 M⁻¹ s⁻¹ | Km [1, 3]: 90 µM | kcat [1, 3]: 22.8 s⁻¹ | kcat/Km [1, 3]: 250000 M⁻¹ s⁻¹

B3: rLcc9 (Coprinopsis cinerea okayama7#130; N229D) (protein)
chain: QILGPTSTMTVSNIDASPDGFNRPVVAVNGQHPGPLVRANKGDNFRINVVNDLNDPTMLRQTSVHWHGVFQHGTAWADGPDGVTQCPIAQNGESFEYRFNAGNEAGTFWYHSHFGTQYCDGLRGPLVIYDPNDPHRNLYDVDNADTVITLVDWYHLQAPSIEGPALSDATLINGKGRRPGGPETDIAIVNVQRNRRYRFRLVSMSCDPDYKFSIDGHKLTVIEADGQLTEPLMVDEIQIFAGQRYSFVLSANRPVGNYWIRAIPNVGSNNLPNFSSGGINSAILRYAGAPNANPTSTPVTNPVALHESNLHALLNPGAPGGSGPADENIVLQMGLGPAGFEINGVTWANPDSPVMVQIMNGVPPADIVPSGAIHTLPRNRVVEVSIPGFELAGPHPFHLHGHAFSVVRSAGSSTYNYENPVRRDVVDVGGASDNVTIRFTTDNPGPWFFHCHIEFHLVLGLAMVFMEAPSDIPSTSPPPPSWSELCPKFESLPASATSIQIVPTP
notes: as for B2
Km ([2]; pH 8.0, 60 °C): 2600 µM | kcat ([2]; pH 8.0, 60 °C): 66.2 s⁻¹ | kcat/Km ([2]; pH 8.0, 60 °C): 25000 M⁻¹ s⁻¹ | Km ([1]; pH 8.0, 60 °C, pH 8.0, 60.0 °C): 370 µM | kcat ([1]; pH 8.0, 60 °C, pH 8.0, 60.0 °C): 87.3 s⁻¹ | kcat/Km ([1]; pH 8.0, 60 °C, pH 8.0, 60.0 °C): 230000 M⁻¹ s⁻¹

B4: rLcc9 (Coprinopsis cinerea okayama7#130; E116K/N229D) (protein)
chain: QILGPTSTMTVSNIDASPDGFNRPVVAVNGQHPGPLVRANKGDNFRINVVNDLNDPTMLRQTSVHWHGVFQHGTAWADGPDGVTQCPIAQNGESFKYRFNAGNEAGTFWYHSHFGTQYCDGLRGPLVIYDPNDPHRNLYDVDNADTVITLVDWYHLQAPSIEGPALSDATLINGKGRRPGGPETDIAIVNVQRNRRYRFRLVSMSCDPDYKFSIDGHKLTVIEADGQLTEPLMVDEIQIFAGQRYSFVLSANRPVGNYWIRAIPNVGSNNLPNFSSGGINSAILRYAGAPNANPTSTPVTNPVALHESNLHALLNPGAPGGSGPADENIVLQMGLGPAGFEINGVTWANPDSPVMVQIMNGVPPADIVPSGAIHTLPRNRVVEVSIPGFELAGPHPFHLHGHAFSVVRSAGSSTYNYENPVRRDVVDVGGASDNVTIRFTTDNPGPWFFHCHIEFHLVLGLAMVFMEAPSDIPSTSPPPPSWSELCPKFESLPASATSIQIVPTP
Km ([1]; pH 8.0, 60 °C, pH 8.0, 60.0 °C): 340 µM | kcat ([1]; pH 8.0, 60 °C, pH 8.0, 60.0 °C): 75.4 s⁻¹ | kcat/Km ([1]; pH 8.0, 60 °C, pH 8.0, 60.0 °C): 210000 M⁻¹ s⁻¹

B5: rLcc9 (Coprinopsis cinerea okayama7#130; I393T) (protein)
chain: QILGPTSTMTVSNIDASPDGFNRPVVAVNGQHPGPLVRANKGDNFRINVVNDLNDPTMLRQTSVHWHGVFQHGTAWADGPDGVTQCPIAQNGESFEYRFNAGNEAGTFWYHSHFGTQYCDGLRGPLVIYDPNDPHRNLYDVDNADTVITLVDWYHLQAPSIEGPALSDATLINGKGRRPGGPETDIAIVNVQRNRRYRFRLVSMSCDPNYKFSIDGHKLTVIEADGQLTEPLMVDEIQIFAGQRYSFVLSANRPVGNYWIRAIPNVGSNNLPNFSSGGINSAILRYAGAPNANPTSTPVTNPVALHESNLHALLNPGAPGGSGPADENIVLQMGLGPAGFEINGVTWANPDSPVMVQIMNGVPPADIVPSGATHTLPRNRVVEVSIPGFELAGPHPFHLHGHAFSVVRSAGSSTYNYENPVRRDVVDVGGASDNVTIRFTTDNPGPWFFHCHIEFHLVLGLAMVFMEAPSDIPSTSPPPPSWSELCPKFESLPASATSIQIVPTP
notes: as for B2
Km ([2]; pH 7.0, 60 °C): 1200 µM | kcat ([2]; pH 7.0, 60 °C): 49.2 s⁻¹ | kcat/Km ([2]; pH 7.0, 60 °C): 38000 M⁻¹ s⁻¹ | Km ([1]; pH 7.0, 60 °C, pH 7.0, 60.0 °C): 140 µM | kcat ([1]; pH 7.0, 60 °C, pH 7.0, 60.0 °C): 83.9 s⁻¹ | kcat/Km ([1]; pH 7.0, 60 °C, pH 7.0, 60.0 °C): 570000 M⁻¹ s⁻¹

B6: rLcc9 (Coprinopsis cinerea okayama7#130; E116K/I393T/N229D) (protein)
chain: QILGPTSTMTVSNIDASPDGFNRPVVAVNGQHPGPLVRANKGDNFRINVVNDLNDPTMLRQTSVHWHGVFQHGTAWADGPDGVTQCPIAQNGESFKYRFNAGNEAGTFWYHSHFGTQYCDGLRGPLVIYDPNDPHRNLYDVDNADTVITLVDWYHLQAPSIEGPALSDATLINGKGRRPGGPETDIAIVNVQRNRRYRFRLVSMSCDPDYKFSIDGHKLTVIEADGQLTEPLMVDEIQIFAGQRYSFVLSANRPVGNYWIRAIPNVGSNNLPNFSSGGINSAILRYAGAPNANPTSTPVTNPVALHESNLHALLNPGAPGGSGPADENIVLQMGLGPAGFEINGVTWANPDSPVMVQIMNGVPPADIVPSGATHTLPRNRVVEVSIPGFELAGPHPFHLHGHAFSVVRSAGSSTYNYENPVRRDVVDVGGASDNVTIRFTTDNPGPWFFHCHIEFHLVLGLAMVFMEAPSDIPSTSPPPPSWSELCPKFESLPASATSIQIVPTP
notes: as for B2
Km ([2]; PIE5, pH 8.0, 60 °C): 5700 µM | kcat ([2]; PIE5, pH 8.0, 60 °C): 43.5 s⁻¹ | kcat/Km ([2]; PIE5, pH 8.0, 60 °C): 7500 M⁻¹ s⁻¹ | Km [1, 4]: 330 µM | kcat [1, 4]: 62.9 s⁻¹ | kcat/Km [1, 4]: 180000 M⁻¹ s⁻¹

B7: rLcc9 (Coprinopsis cinerea okayama7#130; E116K) (protein)
chain: QILGPTSTMTVSNIDASPDGFNRPVVAVNGQHPGPLVRANKGDNFRINVVNDLNDPTMLRQTSVHWHGVFQHGTAWADGPDGVTQCPIAQNGESFKYRFNAGNEAGTFWYHSHFGTQYCDGLRGPLVIYDPNDPHRNLYDVDNADTVITLVDWYHLQAPSIEGPALSDATLINGKGRRPGGPETDIAIVNVQRNRRYRFRLVSMSCDPNYKFSIDGHKLTVIEADGQLTEPLMVDEIQIFAGQRYSFVLSANRPVGNYWIRAIPNVGSNNLPNFSSGGINSAILRYAGAPNANPTSTPVTNPVALHESNLHALLNPGAPGGSGPADENIVLQMGLGPAGFEINGVTWANPDSPVMVQIMNGVPPADIVPSGAIHTLPRNRVVEVSIPGFELAGPHPFHLHGHAFSVVRSAGSSTYNYENPVRRDVVDVGGASDNVTIRFTTDNPGPWFFHCHIEFHLVLGLAMVFMEAPSDIPSTSPPPPSWSELCPKFESLPASATSIQIVPTP
Km ([1]; pH 6.5, 60 °C, pH 6.5, 60.0 °C): 320 µM | kcat ([1]; pH 6.5, 60 °C, pH 6.5, 60.0 °C): 85.8 s⁻¹ | kcat/Km ([1]; pH 6.5, 60 °C, pH 6.5, 60.0 °C): 250000 M⁻¹ s⁻¹

B8: rLcc9 (Coprinopsis cinerea okayama7#130; I393T/N229D) (protein)
chain: QILGPTSTMTVSNIDASPDGFNRPVVAVNGQHPGPLVRANKGDNFRINVVNDLNDPTMLRQTSVHWHGVFQHGTAWADGPDGVTQCPIAQNGESFEYRFNAGNEAGTFWYHSHFGTQYCDGLRGPLVIYDPNDPHRNLYDVDNADTVITLVDWYHLQAPSIEGPALSDATLINGKGRRPGGPETDIAIVNVQRNRRYRFRLVSMSCDPDYKFSIDGHKLTVIEADGQLTEPLMVDEIQIFAGQRYSFVLSANRPVGNYWIRAIPNVGSNNLPNFSSGGINSAILRYAGAPNANPTSTPVTNPVALHESNLHALLNPGAPGGSGPADENIVLQMGLGPAGFEINGVTWANPDSPVMVQIMNGVPPADIVPSGATHTLPRNRVVEVSIPGFELAGPHPFHLHGHAFSVVRSAGSSTYNYENPVRRDVVDVGGASDNVTIRFTTDNPGPWFFHCHIEFHLVLGLAMVFMEAPSDIPSTSPPPPSWSELCPKFESLPASATSIQIVPTP
Km ([1]; pH 8.0, 60 °C, pH 8.0, 60.0 °C): 340 µM | kcat ([1]; pH 8.0, 60 °C, pH 8.0, 60.0 °C): 82.5 s⁻¹ | kcat/Km ([1]; pH 8.0, 60 °C, pH 8.0, 60.0 °C): 230000 M⁻¹ s⁻¹
